Results published in patent US20240199727A1 (INVETX, published 2024).
Changes are numbered by the printed parent chain.

B1: canine 2166 chimeric antibody (antibody, V domains shown)
VH: QVQLKESGPGLVQPSQTLSLTCTVSGLSLTSNSVSWIRQPPGKGLEWMGVIWSNGGTDYNSAIESRLSINRDTSKSQVFLKMNSLQPEDTAMYFCASIYYYDADYLHWYFDFWGPGTMVTVSS
VL: DIQMTQSPASLSASLGETVSIECLASEGISNSLAWYQLKPGKSPQFLIYATSSLQDGVPSRFSGSGSGTQYSLKISGMQPEDEGVYYCQQGYKFPLTFGSGTKLKIKR
notes: also called canine chimeric antibody
B2: SC-184_76 (antibody, from a related filing, V domains shown)
VH: DVQLVESGGDLVKPGGSLRLTCVASGLSLTSDSMSWVRQAPGKGLQWVSTLWSNGGTYYTDSVKGRFTISKDNAENTLYLQMNNLKTEDTATYYCASIYYYEADYLHWYFDFWGQGALVTVSS
VL: EIQMTQSPTSLSASVGDRVTITCRASEGIANNLSWYQQTPGKAPKLLIYATSNLHSGVPSRFSGSGSGTDFTLTISSLQPEDFATYYCQQGFKWPLTFGGGTKLEIT
B3: SC-184_110-Arg (antibody, V domains shown)
VH: B2 VH with D32A, L51I, W52Y, G55R, D104E
VL: B2 VL with A30S, N31K, S52D, F92W
B4: felinized clone 101 (antibody, V domains shown)
VH: B2 VH with D32S, L51I, W52Y, E102D
VL: B2 VL with A30S, F92Y
B5: SC-184_76-Arg (antibody, V domains shown)
VH: B2 VH with G55R
VL: B2 VL
B6: SC-184_110 (antibody, from a related filing, IgG1a, V domains shown)
VH: B2 VH with D32A, L51I, W52Y, D104E
VL: B2 VL with A30S, N31K, S52D, F92W
B7: AHF17602 (antibody, V domains shown)
VH: B2 VH with D32S, S35V, L51I, W52Y, G55R, E102D
VL: B2 VL with F92Y

Tests used:
[1] = target: T1, canine NGF tagged at the C-terminus with the Flag tag (canine, UniProt A0A8I3PYI3 122-241); experiment: SPR Biacore T200; antibody captured on protein A chip, NGF analyte
T1 construct: Baculovirus expression
T1 sequence (A0A8I3PYI3 entry or part of it): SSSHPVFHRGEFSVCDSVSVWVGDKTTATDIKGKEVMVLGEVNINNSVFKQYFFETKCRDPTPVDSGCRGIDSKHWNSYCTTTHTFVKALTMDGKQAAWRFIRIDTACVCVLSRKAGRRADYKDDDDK
Method: The running buffer was HBS-EP buffer (10 mM HEPES, pH 7.4, 150 mM NaCl, 3 mM EDTA, 0.005% tween 20) and the instrument temperature was set at 25 °C. […] The binding signals were corrected for the blank and the resulting sensorgram (FIG. 5) was used to determine the rate constants (kₐ and kd) and binding affinity (KD) using a one-to-one binding model with the BIAEVAL software.

[2] = target: canine NGF tagged at the C-terminus with the Flag tag (canine); experiment: SPR, Biacore T200; antibody captured on anti-feline CM5 chip, NGF analyte, 1:1 fit
[3] = target: T2, canine NGF tagged at the C-terminus with the Flag tag (canine, UniProt A0A8I3PYI3 122-241); experiment: SPR competition; Ab pre-incubated with 50 nM NGF at Ab to NGF ratio 5 to 1, injected over captured feline p75 (competitor)
T2 construct: mature; also called feline NGF (processed form identical)
T2 sequence (A0A8I3PYI3 entry or part of it): as above

[4] = target: T2, canine NGF tagged at the C-terminus …; experiment: SPR competition; Ab pre-incubated with 10 nM NGF at Ab to NGF ratio 10 to 1, injected over captured feline TrkA (competitor)
[5] = target: T2, canine NGF tagged at the C-terminus …; experiment: SPR competition; Ab pre-incubated with 10 nM NGF at Ab to NGF ratio 50 to 1, injected over captured feline TrkA (competitor)
[6] = target: T2, canine NGF tagged at the C-terminus …; experiment: SPR competition; Ab pre-incubated with 50 nM NGF at Ab to NGF ratio 1 to 1, injected over captured feline p75 (competitor)

Sequence of canine NGF tagged at the C-terminus with the Flag tag (canine) (chain, as listed by the source): as the sequence (A0A8I3PYI3 entry or part of it) above

Binder | koff [1] [s⁻¹] | Kd [2] [nM] | koff [2] [s⁻¹] | kon [2] [M⁻¹ s⁻¹] | % Block [3] [%] | % Block [4] [%] | % Block [5] [%] | % Block [6] [%]
B1 | 3.5e-06 | – | – | – | – | – | – | –
B2 | – | 0.472 | 0.000396 | 838000 | – | – | – | –
B3 | – | – | – | – | 100 | 100 | 100 | 100
B4 | – | – | – | – | 87 | 15 | 76 | 42
B5 | – | – | – | – | 100 | 99 | 100 | 100
B6 | – | 0.773 | 0.00038 | 492000 | – | – | – | –
B7 | – | – | – | – | 100 | 99 | 100 | 100
